Measured values published in the DeepSol protein solubility set.

Test: soluble on expression in E. coli; label from the status in PepcDB or PDB records
For “MGSDKIHHHHHHCPVNWVEFGGSCYWFSRDGLTWAEADQYCQLENAHLLVINSREEQDFVVKHRSQFHIWIGLTDRDGSWKWVDGTDYRSNYRNWAFTQPDNWQGHEQGGGEDCAEILSDGHWNDNFCQQVNRWVCEKRR”, the “soluble on expression in E. coli” value was “not soluble”.
For “MSLADTYRPEISVAGFIPLPDCGRQVYNFNPGWRFFKGDIRGAEAVNFDDRSWEVVSTPHTVELMPAEGSGCRNYQGPAWYRKHFVVPTATKGQRVLLHFEAAMGKQVLYLNGKRVQEHLGGYLPFTLDLTANGVQAGDSCLLAVYTDNSNDKSYPPGKPQYTLDFAYHGGIYRDVWMIAKSPVAITDAIDSRTVGGGGVFVHFDKISEKSAQVYVETEIQNDNTRSESVTIETTLTDAEGNVIKRTSGKLSLNSGEKKSIRQQMEVRNPKLWSPDAPYLYRVQSRIKKGNRSIDGGTTRIGIRLAEFRGKEGFWLNGKPFGQLVGANRHQDFAYVGNALPNSQQWRDAKRLRDAGCTIIRVAHYPQDPSFMDACDELGLFVIVATPGWQYWNKDPKFGELVHQNTREMIRRDRNHPSVLMWEPILNETRYPLDFALKALEITKEEYPYPGRPIAAADVHSAGVKEHYDVVYGWPGDDEKEDKPEQCIFTREFGENVDDWYAHNNNNRASRSWGERPLLIQALSLAKSYDEMYRTTGQFIGGTQWHPFDHQRGYHPDPYWGGIYDAFRQKKYAYEMFRSQSPASLQHPLAECGPMIFLAHEMSQFSDKDVVVFSNCDSIRLSIYDGTKTWTKPVVHAKGHMPNAPVIFENVWDFWEARGYSYTQKNWQKVNMVAEGIIDGKVVCTQKKMPSRRSTKLRLYADTQKVNLVADGSDFIVVVAEVTDDSGNVRRLAKENIVFTVEGEGEIIGDARIGANPRAVEFGSAPLLIRSTRKAGKIKVKAHVQFEGTQAPTAAEMEFESVPAELPFCYDEKEGHHHHHH”, the “soluble on expression in E. coli” value was “soluble”.
For “MFENNETLIVWSETDVMDLALSFQEKSGCEELWQKICEVQGRDPGDPDATFDDGDDSDVGEMPSSASRLQLPPIEIGRLGELDALLHMHLTTNSAREKMTLAIENDNVVTKLCEVFRMCEDIEHTEGLRTFYSIVKNLFMLNRNTVIEMLLDDNNIKDVIGMFEFDPAYKHPRKHRDFVYKKAKFREVLNISCDELRDKIHRLYRAQYIQDACLPSLGLFEENLLSTLSSHVFFCRVDIVTLLQKDKKAMSELFGQLISEETDVIRRRDLALFLKEMISLSTSIPSNGPAATKETFFKVLQNMFNSEILDSLEPCFKSPDHETRAVMVDVLRTMVDANAQMIRDFLLKQSKTKDKNEDVLLNMMIRHLLTDIDVHLTSGSEIVLIMKTLLDPENMTTVKSERSDFLQLFYNRCYESLLKPILENVSGGNIKKDDYMIANRQSVILRLLTFCVEHHSFSMRQRCVSNDLMNKVLVLLKSKHSFLVLSALKLLQRVVTVKDDKYIRYIVKEKVLDPVMECFRKNGNRYNIINSSVLHLFEFVRSEDVRPLIKYVVENHMEVVDSVNYVKTFKEIKIRYDQHRDREETMSVRSEDNSLASPRSFRKDRNEDQWFDEDEDLEVGTMLESIEKDSVAVSPKKEEAGQRKTGMEPMFPSLLKRKNAFDDDEAPVFGGGSAAVINNTEKKIVIKVNSDRSPSRTPSPASSPRASSSPGPSRDDEVTSSQNNKESSPTPTVKSLVDYDESDDSDDDPPSPDAVPSSSTGSPEKEGDSADGKKGDSPEYNDVSSTSNEEKFDSRNGAPVTNENGGVEAAAPTVEISRKRTSDGIDPDAKRIRTEETAPAATATVSQA”, the “soluble on expression in E. coli” value was “not soluble”.
With “METKDLIVIGGGINGAGIAADAAGRGLSVLMLEAQDLACATSSASSKLIHGGLRYLEHYEFRLVSEALAEREVLLKMAPHIAFPMRFRLPHRPHLRPAWMIRIGLFMYDHLGKRTSLPGSTGVRFGADSVLKPEIVRGFEYSDCWVDDARLVLANAQMVVRKGGEVLTRTRATAARRENGLWIVEAEDIDTGKKYVWQARGLVNATGPWVKQFFDEGMHLPSPYGIRLIKGSHIVVPRVHNQKQAYILQNEDKRIVFVIPWMEEFSIIGTTDVEYKGDPKAVKIEESEINYLLKVYNAHFQKQLGRDDIVWTYSGVRPLCDDESDSPQAITRDYTLDIHDENGKAPLLSVFGGKLTTYRKLAEHAMEKLASYYPGIGPAWTKTCVLPGGDIDGSREDYAAKLRRRYPFLTESLARHYSRTYGSNTEWILGEATSLLDLGEDFGHEFYEAELKYLVDHEWVRRTEDAIWRRTKEGMWLTAEQQSRITQWLAAYVEKHQLSMASLEHHHHHH” the “soluble on expression in E. coli” value was “soluble”.
In the case of “MSLSRPRSVADHPMINPRLIALPDYPFQRLATLLAGVAPGADPLALSVGEPQHPTPALAGLELARHGDQWRRYPPAAGNERWKAAVTAWLTRRYGLPAAMIDPHAVIPASGTREALYMLGQVLTDGRGEAGERPLVVMPDPLYLPYLGAARMNGATILAVPGSEEGDFLPDIAGLPAATLERAAAVFVCSPANPQGSIVSLESWKTLVGLARRHGFVLVADECYSEIYDDQPPPGVLEACRDLGGSLKNVLVLNSLSKRSNGAGLRSGLIAGDRALIDAFLRLRAYASAGMPLPIMEASAALWDDETHVEANRALYREKIDLAAARLKGMLGFRRPPGGFFLWLDTTPWGETGEQATLRLWRDHGLKVLPGAYMTANPDAGDNPARNRLRLALVHDGPVVARALDRLVAASPHEGHHHHHH”, the “soluble on expression in E. coli” value was “soluble”.
For “MGSDKIHHHHHHMIIELFGPPGAGKTTLLRGLCQGMAKHGINVKTVNGYRLIEYGSAQEDGPEVRHGIGRIGKKIATSGPVLLSTLPKDGVAARLLASIPLRSLTWSWRMKVDIALLCESWRQAQESEGYFIFEEGIIQALCALVVLARTPSIDVVRDCLAFLPRPDLLIQLDAPQETLRRRLMDRHAQQPLLEVLLFELGVDRGLRQADISRDIGKCLRQDGWPLIKVNGAEPHDLDKIITRILEEHETVPV”, the “soluble on expression in E. coli” value was “not soluble”.
For “MEKVVCIGCGVTIQTEDKTGLGYAPPASLTKENVICQRCFRLKNYNEIQDVSLTDDDFLNILHGIGETDSLVVKIVDIFDFNGSWINGLQRLVGGNPILLVGNKADILPKSLKRERLIQWMKREAKELGLKPVDVFLVSAGRGQGIREVIDAIEHYRNGKDVYVVGCTNVGKSTFINRIIKEVSGEEDIITTSQFPGTTLDAIEIPLDDGSSLYDTPGIINNHQMAHYVNKKDLKILSPKKELKPRTFQLNDQQTLYFGGLARFDYVSGERSPFICYMPNELMIHRTKLENADALYEKHAGELLTPPGKDEMDEFPELVAHTFTIKDKKTDIVFSGLGWVTVHDADKKVTAYAPKGVHVFVRRSLI”, the “soluble on expression in E. coli” value was “not soluble”.
With “MIEFSHVSKLFGAQKAVNDLNLNFQEGSFSVLIGTSGSGKSTTLKMINRLVEHDSGEIRFAGEEIRSLPVLELRRRMGYAIQSIGLFPHWSVAQNIATVPQLQKWSRARIDDRIDELMALLGLESNLRERYPHQLSGGQQQRVGVARALAADPQVLLMDEPFGALDPVTRGALQQEMTRIHRLLGRTIVLVTHDIDEALRLAEHLVLMDHGEVVQQGNPLTMLTRPANDFVRQFFGRSELGVRLLSLRSVADYVRREERADGEALAEEMTLRDALSLFVARGCEVLPVVNMQGQPCGTLHFQDLLVEA” the “soluble on expression in E. coli” value was “soluble”.
In the case of “MKLGNVVIVLGKRLVNNQLSAEGISRVEALAAKIREMPMENTALVFCGGKTQGQSISEADAMYAYFQTLNTSLAKPFPTSQTLLENRSLNTFENMRNAAKVLCESGLFPLPSQATVEVILLSNVYHLERILEIQTLMDEQGLLRVIKSQCASVGLDLHISLDIQKHISVPYPHQGPQAEAFLLLDELTTYRVYLEGVKSGAFQRDLTSVRAQPLLRAKQAISQLRALPLEMDVLQQIAEMKKAIEMTAFDESVATAERALEMFHPILTALNRRLDPESIQAAALEHHHHHH”, the “soluble on expression in E. coli” value was “soluble”.
With “MYVTVTEAAYKKIMDTIPSEAKYIKLFYDNEGCGCVMSGIIDLVAVAEKDERDVDIESSTMNFIADRTKLVFMDDKLTVDWHEGGGTFQLKSPSQFYNPNMKLHVRV” the “soluble on expression in E. coli” value was “not soluble”.
With “MSLNPNYSIFAELYDELFDPNMYLSWNGFVQDNSRNNRILDLAGGSGKLAVLLTKSGYQVSILDLSSQMLSLAKQRAENNNFSFDLFQANMAQNWHLNKRFPLISCFADSLNYLSNIGETKRTFFEVFNHLEKNGKFLFDVITPYQVNVVYRNYMYNNDDDPEKIFMWTSFPGDIKNSVDHDLKFFVYQEGIDAFKMVREVHHEQTYPPEKYLSLLKEIGFRNIHLTSDFGRGKITRDTTRAFFVAEKEGHHHHHH” the “soluble on expression in E. coli” value was “not soluble”.
With “MAHHHHHHMKVENSKMEVKREQSYSNEDEEINEEDLNWWEQENLRIAMKGERRWETLAHNGVLFPPEYEPHGIPIFYDGREFKMTPEEEEVATMFAVMKEHDYYRMEVFRRNFFESWREILGKRQHPIRRLELCDFEPIYQWYLVQREKKLSRTKEEKKAIKEKQDAEAEPYRYCVWDGRREQVANFRVEPPGLFRGRGKHPLMGKLKVRVQPEDITINIGETAEVPVPPAGHKWAAVQHDHTVTWLAMWRDNVAGNMKYVMLAPSSSVKGQSDMVKFEKARKLKDKVDDIRASYMEAFKSNDLHVAQRAVAMYFIDRLALRVGNEKGEDEADTVGCCSLRVEHIQLMPDNIVRFDFLGKDSIRYQNDVAVLPEVYALLQRFTCRKSPGMDIFDQLNPTQLNDHLKSFMDGLSAKVFRTYNASITLDRWFKEKPVDPKWSTADKLAYFNKANTEVAILCNHQKSVSKNFKLQMMQLTTKSEYTRKTLELLEKAEVTAKKKSVEEAAKEFLEEQDRMQREWLESYGTEEQKKEFEEIVAKRAAPRVRSEKKSSSGTKKAKSASGKTRAATKKKSAKKSGKASSKKAARKSSKKAPKRSKEEDEDDVPLMSMAAKTKKTAGVKRQRAVKVASDDDDVPLAALRV” the “soluble on expression in E. coli” value was “not soluble”.
In the case of “MSVQLKCDAVNCVYNRSHLCSAEEIEVQGGETTGGDATFCGTFSSKSLGNFVSSLGNMNYSGSLKQAVSAEPIMDPKVHCNAVNCTYNDQRYCHADQVEIRNEVSHTAEETECQTFYPKMSLEHHHHHH”, the “soluble on expression in E. coli” value was “not soluble”.
In the case of “MNVVLVGTDPNGLTDALEAEGHTVMVADVGNRPGLEEAGIHEADVYLLTEMSQATSIAVAKDLNPDLRVVVYAEGSLPDFASRQTDLVVDPDLLGSDAVAEEL”, the “soluble on expression in E. coli” value was “not soluble”.
In the case of “MKKFFQEIKADIKFKSAGPGQKLTDSAGEKTTKGKSPQLALRQPRQGPTDEAQMAAAAALARLEQKQPRARGPTSQDSIRNQVRKELQAEATSSNNPGAPGTNSVPEPKEEISPHLAVPGVFFICPLTGVTLRRDQRDAHIKQAILSHFSTDPVAASIMKIHTFNRDRDRVKLGVDTIAKYLDNIHLHPEEEKYQKIKLQNKVFQERINCLEGSHEFFEAIGFKKVTLPVPDQEGQEEFYVLGEDARAQPQNLARHKQQLLDAEPVRATLDRQLRVFRPSALASHFELPSDFFSLTAEEVKREQRLRTEAVERLSSLRTKAMREKEEQRELRKYTYALVRVRLPDGCLLQGTFYAREKLSALFRFVREALQNDWLPFELRASGGQKLEENEALALNECGLVPSALLTFSWDASVLEDIRAAGAEPAKSVLRPELLAAIEQLS”, the “soluble on expression in E. coli” value was “soluble”.
In the case of “MAHHHHHHMLNLSSLLISKKNVKDDGNNSSENEVGGNNDVSSLNNDCVKIKLINMQEYKTKKLLDERKNVNVWSANNKKDNDKKEKKKEKKNEQPKKKESVVTKPKAVGENDTKKIENKDIENKNVTPKKLFVPSAIKQQQQKEALKNKQTPKKEEELFPDLIQSKKSNKTEKEKKKTQPAKKSKKEKADKKVQESTKEQENEFPQIEEIEKIHFNIFDFIDMEKQTYEHIVRNSEKVLQKYKNRSKFVDSMIMCN”, the “soluble on expression in E. coli” value was “not soluble”.
